Among the data in paper PMC11098746 (2024) are binding score values, retold here.

What all share (experiment): AVEXIS screen signal:noise (double-corrected)
One test deals with ADP123.
A further test addresses T1, ADP379.
T1 chain: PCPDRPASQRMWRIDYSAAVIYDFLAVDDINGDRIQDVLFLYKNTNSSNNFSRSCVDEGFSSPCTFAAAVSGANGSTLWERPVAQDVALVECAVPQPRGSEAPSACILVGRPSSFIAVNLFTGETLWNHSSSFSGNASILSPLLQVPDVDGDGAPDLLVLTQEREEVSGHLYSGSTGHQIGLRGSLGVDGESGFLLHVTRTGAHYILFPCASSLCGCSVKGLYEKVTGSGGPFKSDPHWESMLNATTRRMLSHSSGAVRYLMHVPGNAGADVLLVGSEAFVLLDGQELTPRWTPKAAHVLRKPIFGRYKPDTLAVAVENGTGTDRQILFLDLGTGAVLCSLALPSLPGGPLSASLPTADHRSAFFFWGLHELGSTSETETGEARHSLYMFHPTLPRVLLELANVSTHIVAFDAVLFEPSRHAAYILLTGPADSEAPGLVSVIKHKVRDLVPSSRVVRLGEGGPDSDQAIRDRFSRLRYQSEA

The target in another test is T2, ADP261.
T2 chain: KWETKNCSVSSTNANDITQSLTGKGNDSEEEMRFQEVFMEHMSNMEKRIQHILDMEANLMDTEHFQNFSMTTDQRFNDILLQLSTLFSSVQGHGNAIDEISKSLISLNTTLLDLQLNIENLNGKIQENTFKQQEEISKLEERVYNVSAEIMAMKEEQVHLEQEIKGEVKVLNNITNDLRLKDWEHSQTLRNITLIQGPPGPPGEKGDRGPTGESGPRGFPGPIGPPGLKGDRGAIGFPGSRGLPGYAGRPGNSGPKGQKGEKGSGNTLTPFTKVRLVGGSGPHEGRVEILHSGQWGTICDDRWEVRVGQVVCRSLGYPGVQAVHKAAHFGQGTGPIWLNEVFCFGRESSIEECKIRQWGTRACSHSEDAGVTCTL

B1: ADP237 (protein)
chain: TKKKVSVSEINFDSAVDDVQWCGNNHMTVLVKTVKGRLYRSSDGGKIWTNIAGNLADKENNKADPSSNHMNEMTTVDLIMVNSVNKNIVLIIGNQKNHYISEDSGETFRLLNYQNKINFWQFHSTKTHWALVSSWTEACYSNDDNSGECMQTLSLTKDLGRTFQLIDIYVVQFNWGDKESHLEDTIYYTRHKNRNGHQQRFSGWSKDVDFVATHNFGKSVDVLVKQGNKFLISNGYIFVAKLNDVIKQTVNMMVSTDGGKTFNKANLPENIHEKSYTVLDTSEGSIMLHVNHGTSSEKINTGNVYISDASGLNYALSLPNNIRTSSGECEFDRVLSLDGVYIANFLDVNNEIKDEDLRFQNFKSAIEEDIAPFETNTEKRKKQYNKGKNEDAVRTVISFNKGGEWSYLKAPKVDSRGNKYECGDNCYLHLHGITNYHQYAPFYSIENAVGIIMGTGNVGSHLRYESDEVNTFLSRDGGVTWIEAHKGPYIYEYGDYGGLIVMADDLRKTNQIVFSWNEGQSWFDFELGQFSIDVDNIVAEPNSASVEFLVYGTRNDVGVLYHLDFNALGQPLCKGLWAADSVSSDYETWSPTSGNFNDKCILGRKITYTRRKQTSECFNGKDLKRTVDKKPCECTPEDYECETGFTRKIGSYECKPNDPTLTIEGCTSSSYFYANAYRKVPGDICVNGWVPEKVPVPCPSYAPFNKAAK
modifications: bait human Fc-tagged dimer; N-glycosylation sequons mutated in Plasmodium baits
Regarding B1, the binding score with ADP123 is 5.84; in the test with ADP379 it was 16.2; in the test with ADP261 it was 19.5.
